Patent US7888090B2, “Mutants of O6-alkylguanine-DNA alkyltransferase” (Ecole Polytechnique Federale de Lausanne, priority 2004, dated 2011)

Tests used:
[1] = Activity assay with biotinylated O^6-benzylguanine (BG-Bt), Western blotting; format: biochemical; settings: statement in words
In short: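 Purified mutant GST-AGT (0.2 μM) reacted with 1 μM biotinylated O^6-benzylguanine in 50 mM HEPES pH 7.2, 1 mM DTT at room temperature. Time-point aliquots quenched with O^6-benzylguanine in SDS buffer. Biotinylated protein detected by Western blot with neutravidin-peroxidase, band intensity quantified.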

[2] = Expression yield of soluble GST-AGT fusion protein; parameters: species or system E. coli; settings: comparator not stated
In short: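 GST-AGT fusions expressed in E. coli BL21, induced with 0.5 mM IPTG for 3.5 h at 24 °C, and purified from the soluble fraction on glutathione sepharose. Soluble and insoluble fractions compared by SDS-PAGE. Yield taken from A280 relative to wild-type hAGT purified the same way.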

DNA = DNA binding in vitro (co-purified DNA, UV spectroscopy); parameters: species or system E. coli
Procedure: The interaction with DNA is e.g. quantified by assessing the amount of copurified DNA from E. coli extracts under conditions of low salt and absence of DNase. This is compared between parallel purifications of fusion proteins (e.g. fusions to GST) of wild type (human) and mutant AGT by spectroscopic methods (ratio of absorbance at 260 and 280 nm). Alternatively the interaction of AGT with DNA is measured as the inhibition of AGT reactivity with BG-Cy3 (O^6-(4-aminomethyl-benzyl)-guanine coupled to Cy3) as substrate in the presence of DNA. This approach takes advantage of a marked increase of fluorescence of the Cy3 fluorophore upon reaction of BG-Cy3 with AGT. The reaction kinetics of AGT with a Cy3-labeled benzylguanine derivative is followed by fluorescence intensity measurements over several hours at various concentrations of salmon sperm DNA.
For comparing the DNA binding properties of the protein in vitro, the harvested cells are resuspended, and the GST fusion protein is purified following the same method but in a buffer containing 50 mM phosphate, 0.1 M NaCl, 1 mM DTT. In the dialysed samples, the amount of subsequently co-purified DNA is estimated by UV spectroscopy. Spectra are recorded using a Perkin Elmer Lambda 10. The content of DNA corresponds to the ratio of the extinctions at 280 and 260 nm. […]

[3] = Periplasmic expression / stability under oxidizing conditions; parameters: species or system E. coli
Procedure: The activities towards AGT substrates are measured after purification without addition of reducing agents such as dithiothreitol or beta-mercaptoethanol. Alternatively, the activities of mutant AGT and wild type human are compared after their export into cellular compartments with oxidising redox potential (e.g. the periplasm of E. coli due to their fusion to appropriate signal sequences. Activity towards AGT substrates under reducing and oxidising conditions is compared by performing the reactions in the presence or absence of reducing agents such as dithiothreitol or beta-mercaptoethanol.
The mutant AGT gene of Example 1 is amplified and cloned as described in Example 1 with the oligonucleotides SEQ ID NO:3, SEQ ID NO:10 and SEQ ID NO:4, SEQ ID NO:9 causing the further mutation Cys62Ala in the gene upon their incorporation by PCR. Protein expression, purification and determination of yield is carried out as described in Example 1. The mutant gene is PCR amplified with the primers SEQ ID NO:11, SEQ ID NO:12 that contain SfiI restriction sites to subclone the gene in fusion to the g3 protein of filamentous phage in the vector pAK100 (Krebber et al., J Immunol Methods 201:35-55, 1997). […] The supernatant is directly subjected to quantification of protein yield via SDS-PAGE and activity assays as described in Example 1.
Stability under oxidizing conditions: The mutant gene is PCR amplified with the primers SEQ ID NO:11 and SEQ ID NO:28 to subclone the gene into pAK100, as described in Example 2. […] To compare the reactivity of […] (Juillerat et al., Chem Biol 10:313-317, 2003) and the mutant, samples are incubated with 1 µM BG-Bt for 50 min, quenched with SDS-Laemmli buffer and analyzed by western blotting using neutravidin peroxidase conjugate (Pierce) or a monoclonal mouse anti-FLAG IgG antibody (M2, Sigma) and a secondary anti-mouse-IgG::HRP conjugate, and Renaissance reagent plus (NEN). […] The anti-FLAG IgG antibody is used to estimate the total amount of soluble AGT protein, whereas neutravidin quantifies the reactive portion of it. […]

B1: Cys62Ala, Lys125Ala, Ala127Thr, Arg128Ala, Asn157Gly, Ser159Glu, truncated after Gly182: particularly preferred hAGT mutant with the listed mutations (protein, UniProt P16455 1-207, looked up, variant C62A K125A A127T R128A N157G S159E del183-207)
Methylated-DNA--protein-cystei …: MDKDCEMKRTTLDSPLGKLELSGCEQGLHEIKLLGKGTSAADAVEVPAPAAVLGGPEPLMQATAWLNAYFHQPEAIEEFPVPALHHPVFQQESFTRQVLWKLLKVVKFGEVISYQQLAALAGNPAATAAVGGAMRGNPVPILIPCHRVVCSSGAVGGYEGGLAVKEWLLAHEGHRLGKPGLG
activity towards O^6-benzylguanine substrates [1]: increased reactivity
expression yield in E. coli [2]: increased expression yield
reduced DNA binding (DNA): reduced DNA binding
sensitivity to oxidation [3]: reduced sensitivity to oxidation
